This is an account of results in the supplement of paper PMC6755084.

The data set deals with F1*sub RNA substrate (template-directed ligation). Briefly: fraction ligated after 30 min (ligated reads / total reads); higher = more ligase activity; sequences stand for … in GAGACCGCAACTGAAAAGTTGT…AGTTCTGCACGTAGAAGCAAAAGGC
As to conditions: 42 °C. The method, boiled down:
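Templates from an oligo pool were PCR-amplified, transcribed with T7 and gel-purified to give the ribozyme variants. Ligated and unligated products were separated on gel, reverse transcribed using barcoded primers, and read on a MiSeq. A quality filter of ≥20 was applied to core bases. Fraction ligated was taken as ligated reads as a share of all reads per variant.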
Regarding “TATCACTTGTCGTAAGACATTGGAGGGTTGA [3d2210]”, the fraction ligated was 0.0593.

As for “TATCACTTGTCGTAAGACATTGGATGGGTTA [3d2212]”, the fraction ligated worked out at 0.78.

Turning to “TATCACTTGTCGTAAGACATTGGATGGGTTG [3d2213]”, the fraction ligated worked out at 0.797.

“TATCACTTGTCGTAAGACATTGGATGGGTTGA [2d269]” had a fraction ligated of 0.815.

The sequence “TATCACTTGTCGTAAGACATTGGATGGTTGA [3d2211]” yielded a fraction ligated of 0.0757.

For the sequence “TATCACTTGTCGTAAGACATTGGTGGGTTGA [3d2209]”, the fraction ligated came to 0.0429.

“TATCACTTGTCGTAAGACATTTATGGGTTGA [3d2214]”: the fraction ligated turned out to be 0.0203.

The sequence “TATCACTTGTCGTAAGACATTTGAGGGTTGA [3d2216]” yielded a fraction ligated of 0.00411.

Regarding “TATCACTTGTCGTAAGACATTTGATGGGTTA [3d2218]”, the fraction ligated stood at 0.0152.

Consider “TATCACTTGTCGTAAGACATTTGATGGGTTG [3d2219]”, for which the fraction ligated is 0.098.

In turn, “TATCACTTGTCGTAAGACATTTGATGGGTTGA [2d270]” came in with a fraction ligated of 0.291.

For “TATCACTTGTCGTAAGACATTTGATGGTTGA [3d2217]”, the fraction ligated came out at 0.00686.

Sequence “TATCACTTGTCGTAAGACATTTGGAGGGTTA [3d2225]” had a fraction ligated of 0.0022.

Sequence “TATCACTTGTCGTAAGACATTTGGAGGGTTG [3d2226]” returned a fraction ligated of 0.00325.

As to “TATCACTTGTCGTAAGACATTTGGAGGGTTGA [2d272]”, the fraction ligated was determined as 0.015.

Turning to “TATCACTTGTCGTAAGACATTTGGAGGTTGA [3d2224]”, the fraction ligated is 0.00439.

As to “TATCACTTGTCGTAAGACATTTGGATGGGTT [3d2229]”, the fraction ligated was determined as 0.73.

In turn, “TATCACTTGTCGTAAGACATTTGGATGGGTTA [2d274]” displayed a fraction ligated of 0.806.

As to “TATCACTTGTCGTAAGACATTTGGATGGGTTG [2d275]”, the fraction ligated turned out to be 0.828.

The sequence “TATCACTTGTCGTAAGACATTTGGATGGTTA [3d2227]” had a fraction ligated of 0.0433.

“TATCACTTGTCGTAAGACATTTGGATGGTTG [3d2228]”: the fraction ligated was determined as 0.0492.

Regarding “TATCACTTGTCGTAAGACATTTGGATGGTTGA [2d273]”, the fraction ligated was found to be 0.121.

As for “TATCACTTGTCGTAAGACATTTGGGGGTTGA [3d2220]”, the fraction ligated was found to be 0.0157.

For “TATCACTTGTCGTAAGACATTTGGTGGGTTA [3d2222]”, the fraction ligated was 0.00331.

Take “TATCACTTGTCGTAAGACATTTGGTGGGTTG [3d2223]”: the fraction ligated came out at 0.0154.

On to “TATCACTTGTCGTAAGACATTTGGTGGGTTGA [2d271]”, for which the fraction ligated was determined as 0.0311.

Consider “TATCACTTGTCGTAAGACATTTGGTGGTTGA [3d2221]”, for which the fraction ligated amounted to 0.0037.

Regarding “TATCACTTGTCGTAAGACATTTGTGGGTTGA [3d2215]”, the fraction ligated is 0.00941.

The sequence “TATCACTTGTCGTAAGACCTGGATGGGTTGA [3d2183]” displayed a fraction ligated of 0.757.

With “TATCACTTGTCGTAAGACCTTGATGGGTTGA [3d2184]”, the fraction ligated was found to be 0.766.

For the sequence “TATCACTTGTCGTAAGACCTTGGAGGGTTGA [3d2186]”, the fraction ligated amounted to 0.0676.

Consider “TATCACTTGTCGTAAGACCTTGGATGGGTTA [3d2188]”, for which the fraction ligated worked out at 0.771.

For “TATCACTTGTCGTAAGACCTTGGATGGGTTG [3d2189]”, the fraction ligated was 0.79.

With “TATCACTTGTCGTAAGACCTTGGATGGGTTGA [2d262]”, the fraction ligated was 0.791.

In the case of “TATCACTTGTCGTAAGACCTTGGATGGTTGA [3d2187]”, the fraction ligated amounted to 0.127.

In turn, “TATCACTTGTCGTAAGACCTTGGTGGGTTGA [3d2185]” came in with a fraction ligated of 0.0725.

Regarding “TATCACTTGTCGTAAGACCTTTATGGGTTGA [3d2190]”, the fraction ligated was determined as 0.11.

In turn, “TATCACTTGTCGTAAGACCTTTGAGGGTTGA [3d2192]” gave a fraction ligated of 0.0254.

In turn, “TATCACTTGTCGTAAGACCTTTGATGGGTTA [3d2194]” displayed a fraction ligated of 0.0671.

“TATCACTTGTCGTAAGACCTTTGATGGGTTG [3d2195]”: the fraction ligated was 0.513.

“TATCACTTGTCGTAAGACCTTTGATGGGTTGA [2d263]” came in with a fraction ligated of 0.76.

In turn, “TATCACTTGTCGTAAGACCTTTGATGGTTGA [3d2193]” came in with a fraction ligated of 0.0397.

“TATCACTTGTCGTAAGACCTTTGGAGGGTTA [3d2201]” displayed a fraction ligated of 0.0991.

Sequence “TATCACTTGTCGTAAGACCTTTGGAGGGTTG [3d2202]” yielded a fraction ligated of 0.0402.

Turning to “TATCACTTGTCGTAAGACCTTTGGAGGGTTGA [2d265]”, the fraction ligated was 0.072.

Turning to “TATCACTTGTCGTAAGACCTTTGGAGGTTGA [3d2200]”, the fraction ligated was determined as 0.049.

The sequence “TATCACTTGTCGTAAGACCTTTGGATGGGTT [3d2205]” yielded a fraction ligated of 0.744.

“TATCACTTGTCGTAAGACCTTTGGATGGGTTA [2d267]” had a fraction ligated of 0.788.

As to “TATCACTTGTCGTAAGACCTTTGGATGGGTTG [2d268]”, the fraction ligated was found to be 0.828.

Consider “TATCACTTGTCGTAAGACCTTTGGATGGTTA [3d2203]”, for which the fraction ligated stood at 0.127.

As for “TATCACTTGTCGTAAGACCTTTGGATGGTTG [3d2204]”, the fraction ligated was 0.139.

The sequence “TATCACTTGTCGTAAGACCTTTGGATGGTTGA [2d266]” displayed a fraction ligated of 0.285.

As to “TATCACTTGTCGTAAGACCTTTGGGGGTTGA [3d2196]”, the fraction ligated came to 0.0519.

Sequence “TATCACTTGTCGTAAGACCTTTGGTGGGTTA [3d2198]” registered a fraction ligated of 0.0357.

Regarding “TATCACTTGTCGTAAGACCTTTGGTGGGTTG [3d2199]”, the fraction ligated turned out to be 0.0351.

“TATCACTTGTCGTAAGACCTTTGGTGGGTTGA [2d264]”: the fraction ligated is 0.114.

“TATCACTTGTCGTAAGACCTTTGGTGGTTGA [3d2197]” came in with a fraction ligated of 0.0467.

“TATCACTTGTCGTAAGACCTTTGTGGGTTGA [3d2191]” gave a fraction ligated of 0.0153.

On to “TATCACTTGTCGTAAGACTTGGATGGGTTGA [3d2107]”, for which the fraction ligated was determined as 0.771.

For the sequence “TATCACTTGTCGTAAGACTTTGATGGGTTGA [3d2108]”, the fraction ligated was found to be 0.76.

For the sequence “TATCACTTGTCGTAAGACTTTGGAGGGTTGA [3d2110]”, the fraction ligated is 0.0282.

Regarding “TATCACTTGTCGTAAGACTTTGGATGGGTTA [3d2112]”, the fraction ligated was 0.792.

“TATCACTTGTCGTAAGACTTTGGATGGGTTG [3d2113]” had a fraction ligated of 0.796.

For the sequence “TATCACTTGTCGTAAGACTTTGGATGGGTTGA [2d244]”, the fraction ligated came out at 0.821.

In turn, “TATCACTTGTCGTAAGACTTTGGATGGTTGA [3d2111]” returned a fraction ligated of 0.133.

For “TATCACTTGTCGTAAGACTTTGGTGGGTTGA [3d2109]”, the fraction ligated amounted to 0.0656.

“TATCACTTGTCGTAAGATTTGGATGGGTTGA [3d2106]”: the fraction ligated was 0.815.

“TATCACTTGTCGTAAGCACTGGATGGGTTGA [3d2128]”: the fraction ligated worked out at 0.771.

The sequence “TATCACTTGTCGTAAGCACTTGATGGGTTGA [3d2129]” came in with a fraction ligated of 0.743.

As to “TATCACTTGTCGTAAGCACTTGGAGGGTTGA [3d2131]”, the fraction ligated stood at 0.072.

The sequence “TATCACTTGTCGTAAGCACTTGGATGGGTTA [3d2133]” came in with a fraction ligated of 0.565.

“TATCACTTGTCGTAAGCACTTGGATGGGTTG [3d2134]”: the fraction ligated was determined as 0.76.

In turn, “TATCACTTGTCGTAAGCACTTGGATGGGTTGA [2d247]” returned a fraction ligated of 0.756.

The sequence “TATCACTTGTCGTAAGCACTTGGATGGTTGA [3d2132]” returned a fraction ligated of 0.108.

As for “TATCACTTGTCGTAAGCACTTGGTGGGTTGA [3d2130]”, the fraction ligated was determined as 0.0887.

Sequence “TATCACTTGTCGTAAGCACTTTATGGGTTGA [3d2135]” showed a fraction ligated of 0.134.

Take “TATCACTTGTCGTAAGCACTTTGAGGGTTGA [3d2137]”: the fraction ligated was 0.086.

Sequence “TATCACTTGTCGTAAGCACTTTGATGGGTTA [3d2139]” gave a fraction ligated of 0.124.

“TATCACTTGTCGTAAGCACTTTGATGGGTTG [3d2140]” showed a fraction ligated of 0.677.

On to “TATCACTTGTCGTAAGCACTTTGATGGGTTGA [2d248]”, for which the fraction ligated amounted to 0.751.

With “TATCACTTGTCGTAAGCACTTTGATGGTTGA [3d2138]”, the fraction ligated is 0.157.

Consider “TATCACTTGTCGTAAGCACTTTGGAGGGTTA [3d2146]”, for which the fraction ligated worked out at 0.134.

Take “TATCACTTGTCGTAAGCACTTTGGAGGGTTG [3d2147]”: the fraction ligated came out at 0.116.

For the sequence “TATCACTTGTCGTAAGCACTTTGGAGGGTTGA [2d250]”, the fraction ligated is 0.157.

“TATCACTTGTCGTAAGCACTTTGGAGGTTGA [3d2145]” came in with a fraction ligated of 0.143.

Consider “TATCACTTGTCGTAAGCACTTTGGATGGGTT [3d2150]”, for which the fraction ligated was 0.534.

Regarding “TATCACTTGTCGTAAGCACTTTGGATGGGTTA [2d252]”, the fraction ligated is 0.737.

In turn, “TATCACTTGTCGTAAGCACTTTGGATGGGTTG [2d253]” showed a fraction ligated of 0.771.

The sequence “TATCACTTGTCGTAAGCACTTTGGATGGTTA [3d2148]” had a fraction ligated of 0.153.

For the sequence “TATCACTTGTCGTAAGCACTTTGGATGGTTG [3d2149]”, the fraction ligated amounted to 0.17.

Regarding “TATCACTTGTCGTAAGCACTTTGGATGGTTGA [2d251]”, the fraction ligated came out at 0.216.

With “TATCACTTGTCGTAAGCACTTTGGGGGTTGA [3d2141]”, the fraction ligated was determined as 0.129.

In turn, “TATCACTTGTCGTAAGCACTTTGGTGGGTTA [3d2143]” had a fraction ligated of 0.0888.

In turn, “TATCACTTGTCGTAAGCACTTTGGTGGGTTG [3d2144]” displayed a fraction ligated of 0.0518.

Sequence “TATCACTTGTCGTAAGCACTTTGGTGGGTTGA [2d249]” returned a fraction ligated of 0.14.

With “TATCACTTGTCGTAAGCACTTTGGTGGTTGA [3d2142]”, the fraction ligated is 0.118.

Regarding “TATCACTTGTCGTAAGCACTTTGTGGGTTGA [3d2136]”, the fraction ligated was determined as 0.0369.
